B1: ipilimumab (Selleck Biotech Co., Ltd., Cat. No. A2001) (antibody, V domains shown)
VH: QVQLVESGGGVVQPGRSLRLSCAASGFTFSSYTMHWVRQAPGKGLEWVTFISYDGNNKYYADSVKGRFTISRDNSKNTLYLQMNSLRAEDTAIYYCARTGWLGPFDYWGQGTLVTVSS
VL: not shown
B2: nivolumab (Selleckchem, Cat. No. A2002) (antibody, V domains shown)
VH: QVQLVESGGGVVQPGRSLRLDCKASGITFSNSGMHWVRQAPGKGLEWVAVIWYDGSKRYYADSVKGRFTISRDNSKNTLFLQMNSLRAEDTAVYYCATNDDYWGQGTLVTVSS
VL: EIVLTQSPATLSLSPGERATLSCRASQSVSSYLAWYQQKPGQAPRLLIYDASNRATGIPARFSGSGSGTDFTLTISSLEPEDFAVYYCQQSSNWPRTFGQGTKVEIK
B3: pembrolizumab (Selleck Biotech Co., Ltd., Cat. No. A2005) (antibody, V domains shown)
VH: QVQLVQSGVEVKKPGASVKVSCKASGYTFTNYYMYWVRQAPGQGLEWMGGINPSNGGTNFNEKFKNRVTLTTDSSTTTAYMELKSLQFDDTAVYYCARRDYRFDMGFDYWGQGTTVTVSS
VL: EIVLTQSPATLSLSPGERATLSCRASKGVSTSGYSYLHWYQQKPGQAPRLLIYLASYLESGVPARFSGSGSGTDFTLTISSLEPEDFAVYYCQHSRDLPLTFGGGTKVEIKR

These binders were tested against T1, recombinant hTfR described in Example 2 of WO2018/124121, random biotinylated (human, UniProt P02786 89-760, randomly biotinylated with NHS-PEG4-Biotin) (assay: ELISA, target on streptavidin plate, sample at 100 nM, anti-human IgG-HRP).
T1 construct: held on a streptavidin plate for ELISA; also called human TfR
T1 sequence (P02786 89-760 limits assumed): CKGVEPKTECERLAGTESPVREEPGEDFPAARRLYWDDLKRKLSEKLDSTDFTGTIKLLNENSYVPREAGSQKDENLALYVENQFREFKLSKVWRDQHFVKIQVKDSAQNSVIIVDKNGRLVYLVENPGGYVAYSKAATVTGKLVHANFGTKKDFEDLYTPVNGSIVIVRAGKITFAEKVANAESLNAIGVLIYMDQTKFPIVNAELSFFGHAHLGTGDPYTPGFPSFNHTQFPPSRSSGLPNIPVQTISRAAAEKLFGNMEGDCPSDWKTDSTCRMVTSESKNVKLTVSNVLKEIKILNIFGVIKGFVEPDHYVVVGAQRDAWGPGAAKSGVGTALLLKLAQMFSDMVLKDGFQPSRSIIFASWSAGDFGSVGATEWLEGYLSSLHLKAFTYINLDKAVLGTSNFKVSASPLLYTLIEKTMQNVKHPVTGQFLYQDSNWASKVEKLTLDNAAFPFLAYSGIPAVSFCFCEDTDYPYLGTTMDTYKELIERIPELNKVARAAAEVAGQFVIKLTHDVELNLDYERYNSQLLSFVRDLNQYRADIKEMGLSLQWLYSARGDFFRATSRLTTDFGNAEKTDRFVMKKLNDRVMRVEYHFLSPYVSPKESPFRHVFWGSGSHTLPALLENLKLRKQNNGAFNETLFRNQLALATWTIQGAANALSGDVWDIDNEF

Row | Binder | Abs450 nm at 100 nM [Abs450 nm]
1 | B1 | 0.0435
2 | B2 | 0.049
3 | B3 | 0.041

— patent publication US20240366775A1 (PEPTIDREAM, published 2024)
